Experimental data as given in publication PMC7939390 (The Journal of Biological Chemistry, 2020).
No end group written: not given here. *: point of attachment. FITC = O=C1OC2(c3ccc(O)cc3Oc3cc(O)ccc32)c2ccc(NC(=S)*)cc21

Tests used:
[1] = target: T1, PBP1b R141A/R397A (E. coli, UniProt P02919 1-844, R141A | R397A); experiment: cell-based or functional assay
T1 sequence (looked up): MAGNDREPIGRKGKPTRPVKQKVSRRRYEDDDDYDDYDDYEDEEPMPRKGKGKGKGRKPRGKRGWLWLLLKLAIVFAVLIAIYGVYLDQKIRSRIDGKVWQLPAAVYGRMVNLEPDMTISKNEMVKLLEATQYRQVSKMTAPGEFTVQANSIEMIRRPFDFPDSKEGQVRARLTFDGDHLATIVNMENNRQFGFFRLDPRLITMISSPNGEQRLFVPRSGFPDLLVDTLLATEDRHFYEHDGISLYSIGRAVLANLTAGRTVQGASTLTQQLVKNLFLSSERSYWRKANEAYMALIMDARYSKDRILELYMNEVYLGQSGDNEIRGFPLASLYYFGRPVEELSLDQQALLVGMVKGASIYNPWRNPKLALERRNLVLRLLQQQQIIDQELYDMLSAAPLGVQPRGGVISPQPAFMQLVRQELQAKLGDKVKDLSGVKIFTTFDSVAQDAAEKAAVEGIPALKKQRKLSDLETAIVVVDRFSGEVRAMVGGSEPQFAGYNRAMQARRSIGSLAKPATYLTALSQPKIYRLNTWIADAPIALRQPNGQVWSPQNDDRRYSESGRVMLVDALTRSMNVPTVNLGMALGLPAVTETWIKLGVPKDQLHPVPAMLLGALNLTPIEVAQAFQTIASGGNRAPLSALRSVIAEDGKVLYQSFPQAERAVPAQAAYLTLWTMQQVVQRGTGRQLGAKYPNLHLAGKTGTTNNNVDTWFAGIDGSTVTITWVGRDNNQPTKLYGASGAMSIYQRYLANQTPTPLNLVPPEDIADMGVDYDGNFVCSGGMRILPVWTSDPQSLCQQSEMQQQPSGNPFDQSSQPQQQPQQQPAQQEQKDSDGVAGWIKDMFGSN

[2] = target: T2, PBP1bγ (penicillin-binding protein 1b, gamma form) (E. coli, UniProt P02919-2 1-799); experiment: fluorescence polarisation; fluorescence anisotropy; FITC-Lys69–Gln93 probe at 100 nM, serial dilutions of the proteins in their specific buffer, 384-well plates, 30 min at 25 °C; conditions: both partners purified
T2 construct: also called 1b WT
T2 sequence (looked up): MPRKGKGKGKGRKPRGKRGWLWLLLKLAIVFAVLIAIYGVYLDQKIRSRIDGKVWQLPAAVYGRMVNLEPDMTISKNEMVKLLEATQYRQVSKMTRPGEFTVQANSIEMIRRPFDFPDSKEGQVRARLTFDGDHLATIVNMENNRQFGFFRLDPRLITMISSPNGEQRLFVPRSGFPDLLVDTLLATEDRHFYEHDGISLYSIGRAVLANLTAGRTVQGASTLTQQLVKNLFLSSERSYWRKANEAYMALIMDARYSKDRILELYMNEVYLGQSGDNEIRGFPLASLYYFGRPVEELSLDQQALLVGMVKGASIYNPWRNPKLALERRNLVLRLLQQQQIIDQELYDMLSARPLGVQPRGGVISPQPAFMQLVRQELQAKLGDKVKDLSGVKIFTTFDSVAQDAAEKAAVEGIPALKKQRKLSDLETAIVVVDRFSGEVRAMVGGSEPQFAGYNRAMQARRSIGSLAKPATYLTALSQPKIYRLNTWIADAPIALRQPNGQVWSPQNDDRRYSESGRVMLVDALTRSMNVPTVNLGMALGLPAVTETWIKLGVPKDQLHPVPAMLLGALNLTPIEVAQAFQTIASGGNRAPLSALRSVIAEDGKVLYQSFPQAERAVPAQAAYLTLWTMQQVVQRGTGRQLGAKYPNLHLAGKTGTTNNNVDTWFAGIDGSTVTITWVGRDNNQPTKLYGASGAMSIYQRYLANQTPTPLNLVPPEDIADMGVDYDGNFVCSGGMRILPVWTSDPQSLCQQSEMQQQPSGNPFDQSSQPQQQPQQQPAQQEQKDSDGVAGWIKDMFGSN

[3] = test system: E. coli EJ801 (ΔponB-ponA^ts); experiment: microscopy of EJ801 cells, cell morphology and length; type: cell-based, Escherichia coli; design: cell length L: unit not given here; conditions: EJ801 after 1 h at 42 °C, n = 250, phase contrast, ImageJ/ObjectJ
Experimental: Samples were taken from the complementation cultures (42 °C) at different time (1-h intervals), and the cells were fixed as described ([63]). Photographs were taken with a cooled AxioCam MRm (Zeiss) mounted on a Zeiss Axio Imager. Z1 microscope, and the images were acquired in phase-contrast mode using the AxioVision Rel. 4.5 (Zeiss) software. The cell morphologies analysis were determined using ImageJ software (RRID:SCR_003070) running under plugin ObjectJ (RRID:SCR_019190).

[4] = target: T3, PBP1b (Escherichia coli, UniProt P02919); conditions: cited from earlier work
T3 sequence (P02919 1-799 isoform P02919-2): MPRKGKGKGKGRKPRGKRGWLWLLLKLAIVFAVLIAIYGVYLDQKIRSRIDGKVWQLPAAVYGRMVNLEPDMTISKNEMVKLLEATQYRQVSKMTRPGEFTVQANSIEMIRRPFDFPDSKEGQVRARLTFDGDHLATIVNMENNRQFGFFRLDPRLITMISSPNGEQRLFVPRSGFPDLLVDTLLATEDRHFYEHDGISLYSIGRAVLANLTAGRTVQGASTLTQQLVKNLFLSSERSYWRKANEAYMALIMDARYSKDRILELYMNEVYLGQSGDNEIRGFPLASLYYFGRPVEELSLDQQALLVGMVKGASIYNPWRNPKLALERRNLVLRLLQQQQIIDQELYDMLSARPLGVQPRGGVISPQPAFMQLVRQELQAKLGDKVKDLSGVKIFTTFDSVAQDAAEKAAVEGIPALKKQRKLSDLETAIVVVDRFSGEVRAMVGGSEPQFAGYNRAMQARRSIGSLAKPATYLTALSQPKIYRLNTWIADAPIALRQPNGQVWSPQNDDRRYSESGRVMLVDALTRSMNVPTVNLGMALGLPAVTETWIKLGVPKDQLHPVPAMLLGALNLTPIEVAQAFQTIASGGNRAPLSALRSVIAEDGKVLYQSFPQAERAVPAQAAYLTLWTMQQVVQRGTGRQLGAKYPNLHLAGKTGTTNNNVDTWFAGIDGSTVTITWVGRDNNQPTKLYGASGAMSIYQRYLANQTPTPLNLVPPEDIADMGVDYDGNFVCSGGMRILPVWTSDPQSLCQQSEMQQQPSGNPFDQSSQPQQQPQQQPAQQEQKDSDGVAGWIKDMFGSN
Excerpt: Bacteria generally have at least one bifunctional (GTase/TPase) PBP of class A and one monofunctional (TPase only) PBP of class B ([2], [13]). E. coli contains three aPBPs: PBP1a, 1b, and 1c, and two bPBPs: PBP2 and PBP3, the latter being involved in cell elongation and division, respectively ([14]). PBP1a and PBP1b are major PG synthases and at least one of them is required for cell viability ([15]).

[5] = test system: PBP1b^R141A/R397A; type: biochemical, Escherichia coli; conditions: versus PBP1b^WT; GTase, dansyl-lipid II; mean ± s.d. of three experiments
[6] = target: T4, PBP1b (positions 58–804) (E. coli, UniProt P02919 58-804); experiment: crystal structure; co-crystallization of PBP1b (Lys58–Ser804) with moenomycin A (1:1) and EFtsN peptide (3:1), hanging drop, 20 °C; 2.4 Å; conditions: both partners purified
T4 construct: Crystallized with moenomycin A (1:1) and the EFtsN peptide (3:1); also called PBP1b (Lys58–Ser804); source: purified (details in the supporting information)
T4 sequence (looked up): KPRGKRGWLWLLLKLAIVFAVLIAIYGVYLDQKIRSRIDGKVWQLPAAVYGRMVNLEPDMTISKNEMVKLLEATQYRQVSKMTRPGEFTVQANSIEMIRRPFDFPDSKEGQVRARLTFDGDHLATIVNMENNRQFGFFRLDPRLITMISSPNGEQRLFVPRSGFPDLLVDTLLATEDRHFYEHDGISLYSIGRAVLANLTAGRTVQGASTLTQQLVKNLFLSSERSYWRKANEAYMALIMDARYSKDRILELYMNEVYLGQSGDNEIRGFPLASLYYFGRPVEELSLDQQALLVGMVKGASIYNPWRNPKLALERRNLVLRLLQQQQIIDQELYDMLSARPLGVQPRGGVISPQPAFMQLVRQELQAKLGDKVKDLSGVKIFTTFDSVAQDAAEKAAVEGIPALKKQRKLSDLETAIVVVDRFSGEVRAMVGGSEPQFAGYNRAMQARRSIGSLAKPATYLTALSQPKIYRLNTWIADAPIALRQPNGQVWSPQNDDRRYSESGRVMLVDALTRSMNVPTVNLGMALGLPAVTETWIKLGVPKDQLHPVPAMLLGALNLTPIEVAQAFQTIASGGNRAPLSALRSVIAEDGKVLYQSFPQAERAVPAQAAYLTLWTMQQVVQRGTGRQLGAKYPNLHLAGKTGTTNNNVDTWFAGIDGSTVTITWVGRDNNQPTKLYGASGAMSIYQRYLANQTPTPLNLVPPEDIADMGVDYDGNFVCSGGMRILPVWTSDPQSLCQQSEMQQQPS

B1: HisFtsN (full-length FtsN) (natural protein, E. coli, UniProt P29131 1-319, looked up)
chain: MAQRDYVRRSQPAPSRRKKSTSRKKQRNLPAVSPAMVAIAAAVLVTFIGGLYFITHHKKEESETLQSQKVTGNGLPPKPEERWRYIKELESRQPGVRAPTEPSAGGEVKTPEQLTPEQRQLLEQMQADMRQQPTQLVEVPWNEQTPEQRQQTLQRQRQAQQLAEQQRLAQQSRTTEQSWQQQTRTSQAAPVQAQPRQSKPASSQQPYQDLLQTPAHTTAQSKPQQAAPVARAADAPKPTAEKKDERRWMVQCGSFRGAEQAETVRAQLAFEGFDSKITTNNGWNRVVIGPVKGKENADSTLNRLKMAGHTNCIRLAAGG
With B1 the “fold decrease in activation of the GTase activity of PBP1b R141A/R397A by FtsN against the WT protein, continuous fluorescence assay” value [1] was 2 fold.

B2: FITC-labeled peptide (FITC-Lys69–Gln93) of FtsN (peptide)
peptide: {FITC}-KVTGNGLPPKPEERWRYIKELESRQ
notes: also called F-EFtsN; fluorescent EFtsN peptide; source: synthetic peptide, bought: Synpeptide (Shanghai, China)
In the case of B2, the Kd [2] is reported as 8.1 ± 1.7 µM.

B3: PBP1b^WT: PBP1b wild-type (protein)
chain: MPRKGKGKGKGRKPRGKRGWLWLLLKLAIVFAVLIAIYGVYLDQKIRSRIDGKVWQLPAAVYGRMVNLEPDMTISKNEMVKLLEATQYRQVSKMTRPGEFTVQANSIEMIRRPFDFPDSKEGQVRARLTFDGDHLATIVNMENNRQFGFFRLDPRLITMISSPNGEQRLFVPRSGFPDLLVDTLLATEDRHFYEHDGISLYSIGRAVLANLTAGRTVQGASTLTQQLVKNLFLSSERSYWRKANEAYMALIMDARYSKDRILELYMNEVYLGQSGDNEIRGFPLASLYYFGRPVEELSLDQQALLVGMVKGASIYNPWRNPKLALERRNLVLRLLQQQQIIDQELYDMLSARPLGVQPRGGVISPQPAFMQLVRQELQAKLGDKVKDLSGVKIFTTFDSVAQDAAEKAAVEGIPALKKQRKLSDLETAIVVVDRFSGEVRAMVGGSEPQFAGYNRAMQARRSIGSLAKPATYLTALSQPKIYRLNTWIADAPIALRQPNGQVWSPQNDDRRYSESGRVMLVDALTRSMNVPTVNLGMALGLPAVTETWIKLGVPKDQLHPVPAMLLGALNLTPIEVAQAFQTIASGGNRAPLSALRSVIAEDGKVLYQSFPQAERAVPAQAAYLTLWTMQQVVQRGTGRQLGAKYPNLHLAGKTGTTNNNVDTWFAGIDGSTVTITWVGRDNNQPTKLYGASGAMSIYQRYLANQTPTPLNLVPPEDIADMGVDYDGNFVCSGGMRILPVWTSDPQSLCQQSEMQQQPSGNPFDQSSQPQQQPQQQPAQQEQKDSDGVAGWIKDMFGSN
With B3 the “cell length L” value [3] was 2.17 ± 0.46.

B4: LpoB: outer-membrane lipoprotein LpoB (protein, UniProt P0AB38 20-213, looked up)
Penicillin-binding protein …: CVGQREPAPVEEVKPAPEQPAEPQQPVPTVPSVPTIPQQPGPIEHEDQTAPPAPHIRHYDWNGAMQPMVSKMLGADGVTAGSVLLVDSVNNRTNGSLNAAEATETLRNALANNGKFTLVSAQQLSMAKQQLGLSPQDSLGTRSKAIGIARNVGAHYVLYSSASGNVNAPTLQMQLMLVQTGEIIWSGKGAVSQQ
In the case of B4, the “catalytic activities of PBP1b (literature)” value [4] is given as “stimulates both of its catalytic activities” and the “activation of PBP1b^R141A/R397A by LpoB” value [5] is given as “remained unchanged”.

B5: EFtsN peptide (Leu75–Gln93), unlabeled (peptide)
peptide: LPPKPEERWRYIKELESRQ
notes: FtsN, E. coli, residues Leu75–Gln93 (essential region around helix H2); also called essential region of FtsN; synthetic peptide Leu75–Gln93; source: synthetic peptide, bought: Synpeptide (Shanghai, China)
B5: binds [6].
